Experimental data as given in US20150368625A1 (MIT, published 2015).
Where a chain is given by its changes, count along the chain named.

B1: T7 sigma-like fragment with 601 split + SZ18 (other)
chain: MSIAATLENDLARLENENARLEKDIANLERDLAKLEREEAYFGGSGGKNTGEISEKVKLGTKALAGQWLAYGVTRSVTKSSVMTLAYGSKEFGFRQQVLEDTIQPAIDSGKGLMFTQPNQAAGYMAKLIWESVSVTVVAAVEAMNWLKSAAKLLAAEVKDKKTGEILRKRCAVHWVTPDGFPVWQEYKKPIQTRLNLMFLGQFRLQPTINTNKDSEIDAHKQESGIAPNFVHSQDGSHLRKTVVWAHEKYGIESFALIHDSFGTIPADAANLFKAVRETMVDTYESCDVLADFYDQFADQLHESQLDKMPALPAKGNLNLRDILESDFAFA
notes: also called T7 fragment; variable fragment
B2: T3 sigma-like fragment with 601 split + SZ18 (other)
chain: B1 chain with S80R, T193K, N196D, L197M, M198I
notes: also called T3 fragment; T3 sigma factor
B3: K1FR sigma-like fragment with 601 split + SZ18 (other)
chain: B1 chain with S80R, M198R, Q202S, R204N, I209V

The binders below were run against T1, Core fragment with 601 split + SZ17 (Bacteriophage T7, UniProt P00573 1-601) (assay: reporter assay in cells: core at a constant level, sigma-like fragment induced, promoter->sfgfp read by flow cytometry).
T1 construct: Expressed constitutively in cells from a single copy plasmid, not purified; also called conserved fragment; 1-601 fragment
T1 sequence (P00573 1-601, tags or fused parts left off): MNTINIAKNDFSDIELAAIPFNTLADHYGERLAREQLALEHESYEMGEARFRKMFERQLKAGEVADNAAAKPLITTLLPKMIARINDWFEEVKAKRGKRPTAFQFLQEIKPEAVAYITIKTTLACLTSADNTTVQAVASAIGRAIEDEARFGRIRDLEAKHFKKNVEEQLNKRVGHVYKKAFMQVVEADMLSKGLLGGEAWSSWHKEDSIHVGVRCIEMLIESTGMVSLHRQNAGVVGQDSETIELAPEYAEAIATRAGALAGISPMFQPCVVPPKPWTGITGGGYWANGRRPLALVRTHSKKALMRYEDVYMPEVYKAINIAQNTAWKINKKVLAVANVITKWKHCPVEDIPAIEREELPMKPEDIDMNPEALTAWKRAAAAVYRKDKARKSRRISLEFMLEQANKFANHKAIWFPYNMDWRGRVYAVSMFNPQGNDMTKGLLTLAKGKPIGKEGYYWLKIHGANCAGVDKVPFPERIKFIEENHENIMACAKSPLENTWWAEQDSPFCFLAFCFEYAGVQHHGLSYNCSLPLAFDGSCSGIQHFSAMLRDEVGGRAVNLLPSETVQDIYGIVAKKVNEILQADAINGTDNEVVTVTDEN
Protocol: Cells containing the three test plasmids (constitutive expression of core, promoter->sfgfp reporter, and pTac->sigma-like fragment) were inoculated into 0.5 mL LB+antibiotics and grown to saturation overnight. The overnight cultures were diluted 1:200 into 0.15 mL LB+antibiotics+100 μM IPTG and grown at 37° C., 1000 rpm for 6 hours. The fluorescence of the cells was quantified using a flow cytometer (FIG. 8). The assay was performed on three separate days, with three technical replicates per day. Data shown is the average value over all three days, with error bars representing the standard deviation between the mean values on each day.

**Q.** Does B1 bind?
**A.** binds

**Q.** Does B2 bind?
**A.** binds

**Q.** Does B3 bind?
**A.** binds
